Measurements from paper PMC2757719, “EBNA1-Mediated Recruitment of a Histone H2B Deubiquitylating Complex to the Epstein-Barr Virus Latent Origin of DNA Replication” (PLoS Pathogens, 2009).

Experiments:
[1] = molecular target: T1, USP7 (ubiquitin specific protease USP7), full length (human, UniProt Q93009 1-1102); experiment: co-sedimentation; glycerol gradient sedimentation: 50 µg USP7 and 25 µg GMPS, alone or mixed 1 h at room temperature, on 10%–20% glycerol gradients in 50 mM HEPES pH 7.9, 200 mM NaCl, 0.5 mM EDTA; SW41 34,000 rpm, 18 h, 4°C; markers aldolase 158 kDa, catalase 232 kDa; conditions: both partners purified
T1 construct: Ubiquitin specific protease USP7 (HAUSP), human, full length; calculated mass printed as 130 Kd (135 kDa in the introduction); Monomeric by glycerol gradient sedimentation; also called HAUSP; Herpesvirus Associated Ubiquitin Specific Protease

[2] = molecular target: the molecule itself; experiment: as above
[3] = molecular target: T1, USP7 (ubiquitin specific protease …); experiment: native gel or EMSA; EBNA1 fragment titrated, preincubated with 10 pmols USP7 or USP7-NTD 10 min at RT before 10 fmoles 32P-labelled DS site 1 DNA (or EBNA1-DNA preformed, then rising USP7, Figure 2C); 20 mM Tris pH 7.5, 200 mM NaCl, 1 µg salmon sperm DNA, 20 µl; 10% polyacrylamide gel; read-out: supershift of the EBNA1-DNA complex; conditions: both partners purified

T1 sequence (Q93009 whole entry): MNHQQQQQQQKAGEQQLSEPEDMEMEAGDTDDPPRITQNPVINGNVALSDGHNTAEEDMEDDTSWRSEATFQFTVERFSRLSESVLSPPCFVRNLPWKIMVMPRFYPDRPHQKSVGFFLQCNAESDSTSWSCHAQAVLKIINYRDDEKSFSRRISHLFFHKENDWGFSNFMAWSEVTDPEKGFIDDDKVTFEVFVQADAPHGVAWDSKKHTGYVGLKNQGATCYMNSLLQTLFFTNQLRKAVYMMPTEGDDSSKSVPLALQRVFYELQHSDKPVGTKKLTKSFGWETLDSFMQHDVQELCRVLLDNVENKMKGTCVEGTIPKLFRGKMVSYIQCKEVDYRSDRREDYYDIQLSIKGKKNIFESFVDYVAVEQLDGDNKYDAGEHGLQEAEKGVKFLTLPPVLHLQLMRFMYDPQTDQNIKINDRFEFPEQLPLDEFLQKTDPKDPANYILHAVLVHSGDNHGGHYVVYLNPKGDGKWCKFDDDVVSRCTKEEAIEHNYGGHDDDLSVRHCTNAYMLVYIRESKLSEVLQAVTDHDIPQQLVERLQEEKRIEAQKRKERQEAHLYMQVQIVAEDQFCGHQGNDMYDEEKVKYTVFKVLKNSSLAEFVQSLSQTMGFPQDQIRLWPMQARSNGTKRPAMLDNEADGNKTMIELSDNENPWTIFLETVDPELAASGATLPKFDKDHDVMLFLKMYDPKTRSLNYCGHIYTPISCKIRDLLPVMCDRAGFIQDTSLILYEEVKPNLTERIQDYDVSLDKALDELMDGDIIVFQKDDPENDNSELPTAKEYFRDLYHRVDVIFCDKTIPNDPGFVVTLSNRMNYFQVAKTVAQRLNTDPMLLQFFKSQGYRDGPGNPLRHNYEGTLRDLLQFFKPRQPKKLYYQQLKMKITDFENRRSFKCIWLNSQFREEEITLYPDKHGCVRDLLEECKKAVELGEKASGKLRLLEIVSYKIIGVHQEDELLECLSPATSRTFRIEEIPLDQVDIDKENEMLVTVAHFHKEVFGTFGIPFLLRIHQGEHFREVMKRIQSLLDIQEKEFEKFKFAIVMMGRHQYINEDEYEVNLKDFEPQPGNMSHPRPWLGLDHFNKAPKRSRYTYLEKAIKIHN

Row | Binder | stoichiometry N [1] | stoichiometry N [2] | binding result [3]
1 | GMP synthetase (GMPS), His-tagged, recombinant (enzyme, human GMP synthetase, full-length cDNA (in pOTB7) amplified from the start codon to the stop codon and cloned into pFastBac HT B; mass printed as 77 Kda; also called guanosine 5′ monophosphate synthetase; His-tagged GMPS; source: High Five insect cells infected with baculovirus, purified (nickel resin)) not shown | 1 | 2 | 
2 | EBNA1 truncation mutant 395–641 (domain or fragment, EBNA1 of Epstein-Barr virus, amino acids 395-641, amplified from pc3oriPEBNA1; also called EBNA1_(395–641); EBNA_(395–641); source: E. coli BL21 pLysS (pET15b), purified (Ni-NTA Agarose)) PRRPPPGRRPFFHPVGEADYFEYHQEGGPDGEPDVPPGAIEQGPADDPGEGPSTGPRGQGDGGRRKKGGWFGKHRGQGGSNPKFENIAEGLRALLARSHVERTTDEGTWVAGVFVYGGSKTSLYNLRRGTALAIPQCRLTPLSRLPFGMAPGPGPQPGPLRESIVCYFMVFLQTHIFAEVLKDAIKDLVMTKPAPTCNIRVTVCSFDDGVDLPPWFPPMVEGAAAEGDDGDDGDEGGDGDEGEEGQE |  |  | binds
